Source: article doi:10.1101/2020.10.02.324624

Biological target: AmvR (Acinetobacter baumannii ATCC17978)
Assay: SEC

Substance: AmvR (natural protein)
- stoichiometry N: 2
